Assay results: paper PMC12344693, “Human Milk Oligosaccharides Multivalently Presented on Defined Synthetic Neo-Glycoproteins Are Nanomolar Ligands of Tandem-Repeat Galectins” (Biomacromolecules, 2025)

T1: Asialofetuin (UniProt P12763 19-359, asialo form (glycans without sialic acid), by its name only)
T1 construct: asialofetuin (desialylated fetuin); neither source nor species is stated; It is coated on the ELISA plate (0.1 µM in PBS); also called ASF
T1 sequence (looked up): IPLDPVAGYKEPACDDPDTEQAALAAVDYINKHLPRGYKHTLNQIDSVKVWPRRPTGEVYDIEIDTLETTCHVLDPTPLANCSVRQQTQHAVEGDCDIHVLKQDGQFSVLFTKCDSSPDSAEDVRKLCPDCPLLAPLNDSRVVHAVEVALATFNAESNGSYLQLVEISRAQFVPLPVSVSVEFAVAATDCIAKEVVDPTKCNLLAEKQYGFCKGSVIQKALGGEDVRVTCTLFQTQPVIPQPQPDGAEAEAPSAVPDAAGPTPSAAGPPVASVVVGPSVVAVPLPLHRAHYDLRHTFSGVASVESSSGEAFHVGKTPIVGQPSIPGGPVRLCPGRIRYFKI


Experiments:
[1] = target: T2, neo-glycoprotein NGP5 (LN2-Lac-HSA) (human, UniProt P02768 25-609, LN2-Lac (Galβ4GlcNAcβ3Galβ4Glc) on an ethylthioureidyl linker, coupled through squaric acid to lysine residues; approximately 5 to 9 glycans per HSA molecule (number in Table S7); positions not stated); assay: BLI; biotinylated galectin constructs (2 μg/mL in PBS, 0.05% Tween-20) immobilised on streptavidin biosensors; neo-glycoproteins 1.56-100 nM in solution; 25 °C, 850 rpm; association 450 s, dissociation 600 s; Langmuir 1:1 kinetic model; details: both partners purified
T2 construct: human serum albumin (HSA), carrier protein of the neo-glycoprotein; source: washed with water by ultracentrifugation

Asialofetuin = target: T1, Asialofetuin; assay: ELISA; direct ELISA: ASF immobilised on microtiter plates, serial dilution of the galectin in EPBS (PBS with 2 mM EDTA, 50 µL/well); otherwise as the competitive ELISA (anti-His-tag-HRP detection); details: both partners purified

| Kd [1] [nM] | Kd (Asialofetuin) [nM] | Binder |
| --- | --- | --- |
| 0.05 ± 0.01 |  | Gal-9-AVI-link (monobiotinylated full-length galectin-9) (natural protein, human, UniProt O00182 1-355, looked up, biotin on the single lysine of the AVI-tag (…), human galectin-9 (Gal-9), both CRDs with the linker peptide; prepared as described previously; source: E. coli BL21(λDE3) cotransformed with the birA gene (biotin ligase), biotinylated in vivo; see Supporting Information, Section 6; not shown: (GGS)5 linker between AVI-tag and galectin, N-terminal, kept) MAFSGSQAPYLSPAVPFSGTIQGGLQDGLQITVNGTVLSSSGTRFAVNFQTGFSGNDIAFHFNPRFEDGGYVVCNTRQNGSWGPEERKTHMPFQKGMPFDLCFLVQSSDFKVMVNGILFVQYFHRVPFHRVDTISVNGSVQLSYISFQNPRTVPVQPAFSTVPFSQPVCFPPRPRGRRQKPPGVWPANPAPITQTVIHTVQSAPGQMFSTPAIPPMMYPHPAYPMPFITTILGGLYPSKSILLSGTVLPSAQRFHINLCSGNHIAFHLNPRFDENAVVRNTQIDNSWGSEERSLPRKMPFVRGQSFSVWILCEAHCLKVAVDGQHLFEYYHRLRNLPTINRLEVGGDIQLTHVQT |
|  | 2300 ± 800 | Gal-4-AVI-link (natural protein, human, UniProt P56470 1-323, looked up, biotin on the single lysine of the AVI-tag, human galectin-4, full-length tandem-repeat galectin with the native full-length peptide linker of 28 aa (2979 Da); synthetic gene (Biocat) in pET-Duet1; also called Gal-4 (AVI-tag); source: E. coli BL21(λDE3) co-expressing biotin ligase BirA, purified (Ni-NTA); not shown: His6, N-terminal, kept) MAYVPAPGYQPTYNPTLPYYQPIPGGLNVGMSVYIQGVASEHMKRFFVNFVVGQDPGSDVAFHFNPRFDGWDKVVFNTLQGGKWGSEERKRSMPFKKGAAFELVFIVLAEHYKVVVNGNPFYEYGHRLPLQMVTHLQVDGDLQLQSINFIGGQPLRPQGPPMMPPYPGPGHCHQQLNSLPTMEGPPTFNPPVPYFGRLQGGLTARRTIIIKGYVPPTGKSFAINFKVGSSGDIALHINPRMGNGTVVRNSLLNGSWGSEEKKITHNPFGPGQFFDLSIRCGLDRFKVYANGQHLFDFAHRLSAFQRVDTLEIQGDVTLSYVQI |
